Paper PMC3834829, “A signature motif mediating selective interactions of BCL11A with the NR2E/F subfamily of orphan nuclear receptors” (Nucleic Acids Research, 2013)

B1: LexA-BCL11A-(651–670) [not stated] / AAD-EAR2-LBD-(121–399) [not stated] (parent complex)
chain 1: NTENVYSQWLAGYAASRQLK
chain 2: MRKEAVQRGRIPHSLPGAVAASSGSPPGSALAAVASGGDLFPGQPVSELIAQLLRAEPYPAAAGRFGAGGGAAGAVLGIDNVCELAARLLFSTVEWARHAPFFPELPVADQVALLRLSWSELFVLNAAQAALPLHTAPLLAAAGLHAAPMAAERAVAFMDQVRAFQEQVDKLGRLQVDSAEYGCLKAIALFTPDACGLSDPAHVESLQEKAQVALTEYVRAQYPSQPQRFGRLLLRLPALRAVPASLISQLFFMRLVGKTPIETLIRDMLLSGSTFNWP
B2: LexA-BCL11A-(651–670) [not stated] / AAD-COUP-TFI-LBD-(151–467) [not stated] (parent complex)
chain 1: NTENVYSQWLAGYAASRQLK
chain 2: MRREAVQRGRMPPTQPNPGQYALTNGDPLNGHCYLSGYISLLLRAEPYPTSRYGSQCMQPNNIMGIENICELAARLLFSAVEWARNIPFFPDLQITDQVSLLRLTWSELFVLNAAQCSMPLHVAPLLAAAGLHASPMSADRVVAFMDHIRIFQEQVEKLKALHVDSAEYSCLKAIVLFTSDACGLSDAAHIESLQEKSQCALEEYVRSQYPNQPSRFGKLLLRLPSLRTVSSSVIEQLFFVRLVGKTPIETLIRDMLLSGSSFNWPYMSIQCS
B3: LexA-BCL11A-(310–325) [not stated] / AAD-EAR2-LBD-(121–399) [not stated] (parent complex)
chain 1: PPAMDFSRRLRELAGN
chain 2: B1 chain 2
B4: AAD-COUP-TFII-LBD-(144–414) [not stated] / LexA-BCL11A-(651–670) [not stated] (parent complex)
chain 1: MRREAVQRGRMPPTQPTHGQFALTNGDPLNCHSYLSGYISLLLRAEPYPTSRFGSQCMQPNNIMGIENICELAARMLFSAVEWARNIPFFPDLQITDQVALLRLTWSELFVLNAAQCSMPLHVAPLLAAAGLHASPMSADRVVAFMDHIRIFQEQVEKLKALHVDSAEYSCLKAIVLFTSDACGLSDVAHVESLQEKSQCALEEYVRSQYPNQPTRFGKLLLRLPSLRTVSSSVIEQLFFVRLVGKTPIETLIRDMLLSGSSFNWPYMAIQ
chain 2: NTENVYSQWLAGYAASRQLK
B5: LexA-BCL11A-(310–325) [not stated] / AAD-PNR-LBD-(131–410) [not stated] (parent complex)
chain 1: PPAMDFSRRLRELAGN
chain 2: HLDSMESNTESRPESLVAPPAPAGRSPRGPTPMSAARALGHHFMASLITAETCAKLEPEDADENIDVTSNDPEFPSSPYSSSSPCGLDSIHETSARLLFMAVKWAKNLPVFSSLPFRDQVILLEEAWSELFLLGAIQWSLPLDSCPLLAPPEASAAGGAQGRLTLASMETRVLQETISRFRALAVDPTEFACMKALVLFKPETRGLKDPEHVEALQDQSQVMLSQHSKAHHPSQPVRFGKLLLLLPSLRFITAERIELLFFRKTIGNTPMEKLLCDMFKN
B6: LexA-BCL11A-(310–325) [not stated] / AAD-COUP-TFI-LBD-(151–467) [not stated] (parent complex)
chain 1: PPAMDFSRRLRELAGN
chain 2: B2 chain 2
B7: AAD-COUP-TFII-LBD-(144–414) [not stated] / LexA-BCL11A-(310–325) [not stated] (parent complex)
chain 1: B4 chain 1
chain 2: PPAMDFSRRLRELAGN
B8: LexA-NSD1-(790–818) [not stated] / AAD-ERα-LBD-(282–595) [not stated] (parent complex)
chain 1: SSQNHIPIEPDYKFSTLLMMLKDMHDSKT
chain 2: SAGDMRAANLWPSPLMIKRSKKNSLALSLTADQMVSALLDAEPPILYSEYDPTRPFSEASMMGLLTNLADRELVHMINWAKRVPGFVDLTLHDQVHLLECAWLEILMIGLVWRSMEHPGKLLFAPNLLLDRNQGKCVEGMVEIFDMLLATSSRFRMMNLQGEEFVCLKSIILLNSGVYTFLSSTLKSLEEKDHIHRVLDKITDTLIHLMAKAGLTLQQQHQRLAQLLLILSHIRHMSNKGMEHLYSMKCKNVVPLYDLLLEMLDAHRLHAPTSRGGASVEETDQSHLATAGSTSSHSLQKYYITGEAEGFPATV

Variants of: B1
Experiment: yeast two-hybrid; read off a plot

Variant	response [nmol/mg/min]
chain 1 L10A	~0
chain 1 Q8A	~900
chain 1 G12A	~1800
chain 1 W9A	~130
chain 1 Y6A	~840
chain 1 S7A	~910
chain 1 Y13A	~0
chain 1 V5A	~190

Variants of: B2
Experiment: yeast two-hybrid; read off a plot

Variant	response [nmol/mg/min]
chain 1 V5A	~220
chain 1 Y6A	~50
chain 1 Y13A	~0
chain 1 Q8A	~920
chain 1 S7A	~0
chain 1 G12A	~2300
chain 1 L10A	~0
chain 1 W9A	~0

Variants of: B3
Experiment: yeast two-hybrid; read off a plot

Variant	response [nmol/mg/min]
chain 1 S7A	~160
chain 1 R11A	~1300
chain 1 L10A	~0
chain 1 R8A	~1000
chain 1 L13A	~0

Variants of: B4
Experiment: yeast two-hybrid; read off a plot

Variant	response [nmol/mg/min]
chain 1 V99A	~2700
chain 1 R103A	~1900
chain 1 R85A	~1200
chain 1 I95A	~2900
chain 1 V81A	~20
chain 1 F78A	~40

Variants of: B5
Experiment: yeast two-hybrid; read off a plot

Variant	response [nmol/mg/min]
chain 1 L13A	~0
chain 1 L10A	~0
chain 1 F6A	~0
chain 1 R8A	~0
chain 1 R11A	~0
chain 1 S7A	~2500

Variants of: B6
Experiment: yeast two-hybrid; read off a plot

Variant	response [nmol/mg/min]
chain 1 L10A	~0
chain 1 R8A	~900
chain 1 S7A	~100
chain 1 R11A	~670
chain 1 F6A	~0
chain 1 L13A	~0

Variants of: B7
Experiment: yeast two-hybrid; read off a plot

Variant	response [nmol/mg/min]
chain 1 V81A	~960
chain 1 V99A	~640
chain 1 R85A	~2100
chain 1 I95A	~850
chain 1 F78A	~0
chain 1 R103A	~330

Variants of: B8
Experiment: yeast two-hybrid; + 1µM E2; read off a plot

Variant	response [nmol/mg/min]
chain 1 L18A	~1800
chain 1 F14A	~2400
chain 1 M20A	~0
chain 1 K22A	~2500
chain 1 L21A	~0
chain 1 L17A	~0
chain 1 M19A	~2700
chain 1 D23A	~1700
chain 1 S15A	~0
chain 1 Y12A	~2000
chain 1 K13A	~2100
